Data on two substances can be found in patent publication US20090148408A1.

The experiment has as its target envelope glycoproteins of HIV-1HxB2 strain on Env-pseudotyped luciferase reporter virus (HIV-1 HxB2) (UniProt P04578). Briefly: cell-based or functional assay.

For the substance “2D-CD4 secreted by L. jensenii harboring pOSEL651 (P23 promoter-CbsAss-2D-CD4) (from UniProt P01730 26-208)”, the inhibition of HIV-1 entry (luciferase activity at 48 hours), co-incubation of L. jensenii Xna-651 bacteria at 2.5x10^8/ml with virus and HeLa CD4-CXCR4 cells came out at 79%.
As for “2D-CD4 secreted by L. jensenii harboring pOSEL651 (P23 promoter-CbsAss-2D-CD4) (from UniProt P01730 26-208) (receptor)”, the inhibition of HIV-1 entry (luciferase activity at 48 hours), co-incubation of L. jensenii Xna-651 bacteria at 5x10^8/ml with virus and HeLa CD4-CXCR4 cells turned out to be 90%.
